Data as given in the nanobody polyreactivity screen of Harvey et al. (2022).

Experiment: yeast display, Sf9 membrane polyspecificity reagent, FACS + sequencing; frameworks hold sequencing errors
Procedure, shortened: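 Using colony PCR, genes from sorted yeast display clones were amplified, then sequenced on MiSeq at 2 × 250 and filtered by CDR length. The clones had been stained with 10% biotinylated, detergent-solubilized Sf9 membrane reagent for 1 hour at 4 °C and sorted by FACS into low and high (top ~1%) gates on anti-HA and streptavidin fluorescence. Polyreactivity labels come from the gate of origin.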

| Sequence | polyreactivity (PSR sort gate) |
| --- | --- |
| QVHRVESGGGLVQAGGSLRLSCAASGIIFARYAMGWYRPAPGKERELVAAITRRAVSTYYADSVKGRFTITRDNAKNSVYLQLISLKPEDTAVYYCAADRASYFTYAYGYWGQGTQVTVSS | high polyreactivity |
| QVQLVESGGGLVQAGGSLRLSCAASGRTFYNYAMGGYRQAPGKERELVAAISWSDGTTYYADSVKGRFTISRDNAKNTVYLQMNSLKPEDTAVYYCAAEFESSFALGFYYWGQGTQVTVSS | high polyreactivity |
| QVQLVESGGGLVQAGGSLRLSCAASGVIFYRYAMGWYRQAPGKERELVAAITRSGGTTYYADSVKGRFTISRDNAKNTVYLQMNSLKPEDTAVYYCAARVTPGRNGGGYWGQGTQVTVSS | high polyreactivity |
| QVQLEESGGGLVQAGRSLRLSCAASGRTFIRNAMGRYRHAPGQQRELVAAISSRGGRTYYADSVKGRFTISRDNAKTTVSLEMNSLKPEDTAVYYCAADFTYKLDGYDYWGQGSQVTVSS | high polyreactivity |
| QVQLVESGGGLVQAGGSLRLSCAASGLTFTHYARGWYREAPGKERELVAAISRSGGTTYYADSVKGRFTISRDNAKNTLYFQMNSLKPEDTAVYYCAARWWYRYNYDYWGLGTQVTVSS | high polyreactivity |
| QVQLVETGVGLVKAGGSLRLSSAASGYIFYYYAMGWYRQERGKERELVAAISTSDTRTFYADSVKGRFSISRDNAKNTVYLQMNSLKPEDTAVYYCAASLYICGPNYGYEYWGLGTQVTVSS | low polyreactivity |
| QVQLVESGGGLVQAGGRLRLSCAASGRTFRRYTMGWYRQAPGKERELVAAISRNGGSTYYADSVKGRFTISRDNAKNTVYLQMNSLKPEDTAVYYCAALRYAYIADYDYWGQGTQVTVSS | high polyreactivity |
| QVQLVESGGGLVQAGGSLRLSCAASGYTIWHYAMGWYRQAPGKEREFVATISSGGSTYYADSVKGRFTISRDNAKNTVYLQMNSLKPEDTAVYYCAVDIWGGEGYDSWGQGTQVTVSS | low polyreactivity |
| QVQLVESGGGLVQAGGSLRLSCAASGFIFGYYAMGLYRQAPVKERELVAAITSGTGTNYADSVKGRFTISRDNAKNTVYLQMNSLKPEDTAVYYCAAYYTWLSEFGYWGQGTQVTVSS | low polyreactivity |
| QVQLEDSGGGLVQAGGSLRLSCAASGRIFYTYAMGWYRQAPGKERELVAAINRSGSSTYYADSVKGRFTISRDNAKNNVYLQMNSLKPEDTAVYYCNAQSYLYYGWVLTDVDYWGQGTQVTVSS | low polyreactivity |
| QVQLVESGGGLVQAGGSLRLSCAASGYTFYVYTMGWYRQAPGKERELVAAISGSGTSTYYADSVKGRFTISRDNAKNTVYLQMNSLKPEDTAVYYCAAEDYSSDVYSYDYWGQGTQVTVSS | low polyreactivity |
| QVQLVESGGGLVQAGGSLRLSCAASGSTFWRYAMGWYRQAPGKERELVAAITSSGDRTYYADSVKGRFTISRDNAKNTVYLQMNSLKPEDTAVYYCAAALWSSRGYYYAYYYWGQGTQVTVSS | high polyreactivity |
| QVQLVESGGGLVQAGGSLRLSCAASGFTFSHYAMGWYRQAPGKERELVAAITASGGNTYYADSVKGRFTISRDNAKNTVYLQMNSLKPEDTAVYYCNAVSLKFTRKYDYWGQGTQVTVSS | high polyreactivity |
| QVQLVESGGGLVQAGGSLRLSCAASGSIFYHYAMGLYRQAPGKERELVAAISGSGGSTYYADSVKGRFTISRDNAKNTVYLQMNSLKPEDTAVYYCAADTSRYHYTRYFFDSDYWGQGTQVTVSS | low polyreactivity |
| QVQLVESGGGLVQAGGSLRLSCAASGSTFGFNAMGWYRQAPGKERELVAAISRSGTRTYYADSVKGRFTISRDNAKNTVYLQMNSLKPEDTAVYYCAADSTLSRYDYWGQGTQVTVSS | high polyreactivity |
| QVQLVASGGGLVQAGGSLRLSCAASGRIFYAYAMGWYRQAPGKERELVAAITISASSTYYADSVKGRFTFSRDNAKNTVYLQMNSLKPEETAVFYCAAAYRRPWWYSYRYGYWGQGTQVTVSS | high polyreactivity |
| QDQLVESGGGLVQAGGSLRISCAASGITFRYYAMGWYRQAPGKERELVAAITSGGRTYYADSVKGRFTISRDNAKNRVYLQMISLKPEDTAVYYGNAVTFSFYLYAWGQGTQVTVSS | high polyreactivity |
| QVQLVESGGGLVQAGGSLRLSCAASGRTLRKYAMGWYRQAPGKERELVAAITTSGGSTYYADSVKGRFTISRDNAKNTVYLQMNSLKPEDTAVYYCNAARYYAYIGDYWGQGTQVTVSS | high polyreactivity |
| QVQLVESGGGLVQAGGSLRLSCAASGRIFSVYDMGWYRQAPGKERELVAAIDTSDGSTNYADSVTGRFTISRDNAKNTVYLQMNSLKPEDTAVYYCNATDSYVPFDYWGQGTQVTVSS | low polyreactivity |
| QVQLVESGGGLVQAGGSLRLSCAASGRIFVRYAMGWYRQAPGKERELVAAITKSGGSTYYADSVKGRFTISRDNAKNTVYLQMNSLKPEDTAVYYCNADRFYIDYTNTYDSIRDYWGQGTQVTVSS | low polyreactivity |
| QVQLVESGGGLVQAGGSLRLSCAASGFTFVQYAMGWYRPAPGKERELVATITNGGGSTYYADSVKGRFTISRDNAKNTVYLQMNSLKPEDPAVYYCNADSGGRGAPTSTYDYWGQGTQVTLSS | low polyreactivity |
| QDQLVESGGGLVQAGGSLRLSCAASGRTFTFNTMGWYRQAPGKERELVAAIVGDGTTNYADSVKGRFTISRDNAKNTVYLQMYSLKPEDTAVYYCAADFLYSFWYEPTFDYWGQGTQVTVSS | low polyreactivity |

| Sequence | polyreactivity (PSR sort gate) |
| --- | --- |
| QVQLVESGGGLVQAGGSLRLSCAASGSTFYIYAMGWYRQAPGKERELVAAITWRGGGTYYADSVKGRFTISRDNAKNTVYLEMNSLKPEDTAVYYCNADYPRSRGVKYDYWGQGTQVTVSS | high polyreactivity |
| QVQLVESGGGLVQAGGSLRLSCAASGITFGKNALGWYRQAPGKERELVATIRRSGGSTYADSVKGRFTISRDNAKNTVYLQMNSLKPEDTAVYYCNARSWNTYNYWGQGTQVTVSS | high polyreactivity |
| QVQLVESGGGLVQAGGSLRLSCAASGRTFPYYAMGWYRQAPGKERELVARITSGSGTYYADSVKGRFTISRDNAKNTVYLQMNSLKPEDTAVYYCAAREPGVGYVGNYTGLVYWGQGTQVTVSS | low polyreactivity |
| QVQLVESGGGLVQAGGSLRLSCAASGFTLYRYAMAWYRQAPGKERELVAAISWSGGSTYYADSVKGRFTISRDNAKNTVYLQMNSLKPEDTAVYYCAATGYVTRSKRYDYWGQGTQVTVSS | high polyreactivity |
| QVQLVESGGGLVQAGGSLRLSCAASGFIFVSYALGWYRQAPGKETELVAAISSSGGTTNYADSVKGRFTISRDNAKNTVYLQMNSLKPEDTAVYYCAAYVYQTPHSLHIYDYWGQGTQVTVSS | low polyreactivity |
| QVQLVESGGGLVQAGGSLRLSCAASGLILGINAMGWYRQAPGKERELVAAISSSGGRTSYADSVKGRFTISRDNAKNTVYLQMNILKPEDTAVYYCAKRRTTYSHYDYWGQGTQVSVSS | low polyreactivity |
| QVQLVESGGGLVQAGGSLRLSCAASGRIFGEYALGWYRQDPGKERELVARISRSGGSTYADSVKGRFTISRDNAKNTVYFQMNSLKPEVTAVYYCNADAYGTPEFTSYAVRYDYWGQGTQVTVSS | low polyreactivity |
| QVQLVESGGGLVQAGGSLRLSCAASGFTFYVNAMGWYRQAPGKERELVAAISSSGTRTYYADSVKGRFTISRDNAKNTVYLQMNSLKPEDTAVYYCAARGQAYSGDRMYYWGQGTLVTVSS | high polyreactivity |
| QVQLVESGGGLVQAGGSLRLSSAAYGIIIGYYAMGWYRQPPGKERELVAAISWSGGSTYYADSVKGRFTISRDNAKNTVYLQMNSLKPEDTAVYYCAAVVRRKSGNDTWRYNYWGQGTQVTVSS | high polyreactivity |
| QVQLQESGGGLVQAGGSLRLSCAASGTISSSDAMGWYRQAPGKEREFVATIASGTTTYYADSVKGSFTISRDNAENSVYLQTNSLKPEDTAVYYCAAPTIQIYPFYYWGQGTQVTVSS | high polyreactivity |
| QVQLLESGGGLVQAGGSLRLSCAASGIIFVRYVMGWYRQAPVKERELVAAINWSGGSTYYADSVKGRFTISRDNAKNTVYLQMNSLKPEDTAVYYCAAGSARDDDYWGQGTQVTVSS | high polyreactivity |
| QVQLVESGGGLVQAGRSLRLSCAASGITFKLYAMGWYRQAPGKERELVARLSLRGGNTYYADSVKVRFTISRDNAKTTVYLQMNSQNPEDTAVYYCNADLYRQYASRYHYWGQGSQVTVSS | high polyreactivity |
| QVQLVESGGGLVQAGGSLRLSCAASGFIFPRYAMGWSRQRPGKESELVAAISRSGGITRYADSVKGRFTISRDNAKNTVYLQRNSLKPEDTAVYYCAAYIQGWVTAEWVRDDYWGKGTQVTVSS | high polyreactivity |
| QVQLVESGGGLGQAGGSLRLICAASGSTFRHYAMGWYRPAPRKERELVAVISWGGTSTYYADSVKGRFTISRDNAKNTVYLQMNSLKPEDTAVYYCNKAYFPIFKGYEMYYWGQGTQVTVSS | low polyreactivity |
| QVQLVESGGGLVQAGGSLRLSCAPSGRIFPGYAMGWYRQAPGKERELVAAISTNGGRTYYADSVKGRFTISRDNAKNTVYLQMNSLKPEDTAVYYCNAARAVYTQKRFDSWGQGTQVTVSS | high polyreactivity |
| QVQLVESGGGLVQAGGSLRLSCAASGRTFYQYAMGWYRQAPGKERELVAAITRRGGSTYYADSVKGRFTISRDNAKNTVYLQMNSLKPDDTAVYYCNAQYKKGFDYWGQGPQVTVSS | high polyreactivity |
| QDQLVESGGGLVQAGGSLRLSCAASGLTFDKYVMGWYRQAPGKERELVAAITKGGGSTYYADSVKGRFTISRDNAKNTVYLQMNSLKPEDTAVYYCAVTRPLRYWGQGTQVTVSS | high polyreactivity |
| QVQLVESGGGLVQAGGSLRLSCAASGGIFGRYAMGWYRQAPGKERELVAAISKRGGSTYYADSVKGRFTISRDNAKNTVYLQMNSLKPEDTAVYYCNAKRSLFGRYGYWGQGTQVTVSS | high polyreactivity |
| QVQLVESGGGLVQAGGSLRLSCAASGSNFYFYAMGWYIQAPGKERELVADITWSGGSTYYADSVKGRFTISRDNAKNTVYLQMNSLKREDTAVYYCATDSWFGLEYWGQGTQVTVSS | high polyreactivity |
| QVQLVESGGGLVQAGGSLRLSCAASGSIFQGYALGWYRQAPGKERELVAAITASGGSTYYADSVKGRFTISRDNAKNTVYLQMNSLKPEDTAVYYCATDSYWRQDLYRYEYWGQGTQVTVSS | high polyreactivity |
| QVQLVESGGGIVQAGGSLRLSCAASGFTCGPYAMGWYRQAPGKERELVATIRSGDSTNYADSVKGRFTISRDNAKNTVYLQMNSLKPEDTAVYYCARDARASARRKRYDYWGQGTQVTVSS | low polyreactivity |
